B1: Pistol ribozyme (parent)
chain: GGGUCGUUGUUCCAUAAUCGCGUGGAUAUGGCACGCAAGUUUCUACCGGGCACCGUAAAUGUCCGACUGGAGCCGUUCGGGCGGCUAUAAACAGACCUCAGGCCCGAAGCGUGGCGGCACCUGCCGCCGGUGGUAAAAAAGAUCGGAAGAGCACACGUCU

Variants of: B1
Experiment: aptazyme ON/OFF ratio, guanine; higher = stronger switching; co-transcriptional cleavage with and without guanine

Compared with GGGUCGGAACCAGAUAAUCGCGUGGAUAUGGCACGCAAGUUUCUACCGGGCACCGUAAAUGUCCGACUGGAGCCGUUCGGGCGGCUAUAAACAGACCUCAGGCCCGAAGCGUGGCGGCACCUGCCGCCGGUGGUAAAAAAGAUCGGAAGAGCACACGUCU, GGGUCGGGGGAUGAUAAUCGCGUGGAUAUGGCACGCAAGUUUCUACCGGGCACCGUAAAUGUCCGACUGGAGCCGUUCGGGCGGCUAUAAACAGACCUCAGGCCCGAAGCGUGGCGGCACCUGCCGCCGGUGGUAAAAAAGAUCGGAAGAGCACACGUCU is lower in “aptazyme ON/OFF ratio” value: 1.25 for the first, 1.17 for the second.

Going from GGGUCGCCAGCGAAUAAUCGCGUGGAUAUGGCACGCAAGUUUCUACCGGGCACCGUAAAUGUCCGACUGGAGCCGUUCGGGCGGCUAUAAACAGACCUCAGGCCCGAAGCGUGGCGGCACCUGCCGCCGGUGGUAAAAAAGAUCGGAAGAGCACACGUCU to GGGUCGAGGUGAAAUAAUCGCGUGGAUAUGGCACGCAAGUUUCUACCGGGCACCGUAAAUGUCCGACUGGAGCCGUUCGGGCGGCUAUAAACAGACCUCAGGCCCGAAGCGUGGCGGCACCUGCCGCCGGUGGUAAAAAAGAUCGGAAGAGCACACGUCU, the “aptazyme ON/OFF ratio” value rises from 1.17 to 1.18.

Compared with GGGUCGGCCUUGAAUAAUCGCGUGGAUAUGGCACGCAAGUUUCUACCGGGCACCGUAAAUGUCCGACUGGAGCCGUUCGGGCGGCUAUAAACAGACCUCAGGCCCGAAGCGUGGCGGCACCUGCCGCCGGUGGUAAAAAAGAUCGGAAGAGCACACGUCU, GGGUCGACUAGGUAUAAUCGCGUGGAUAUGGCACGCAAGUUUCUACCGGGCACCGUAAAUGUCCGACUGGAGCCGUUCGGGCGGCUAUAAACAGACCUCAGGCCCGAAGCGUGGCGGCACCUGCCGCCGGUGGUAAAAAAGAUCGGAAGAGCACACGUCU is higher in “aptazyme ON/OFF ratio” value: 1.13 for the first, 1.18 for the second.

Compared with GGGUCGGACCCUUAUAAUCGCGUGGAUAUGGCACGCAAGUUUCUACCGGGCACCGUAAAUGUCCGACUGGAGCCGUUCGGGCGGCUAUAAACAGACCUCAGGCCCGAAGCGUGGCGGCACCUGCCGCCGGUGGUAAAAAAGAUCGGAAGAGCACACGUCU, GGGUCGAUGAUUUAUAAUCGCGUGGAUAUGGCACGCAAGUUUCUACCGGGCACCGUAAAUGUCCGACUGGAGCCGUUCGGGCGGCUAUAAACAGACCUCAGGCCCGAAGCGUGGCGGCACCUGCCGCCGGUGGUAAAAAAGAUCGGAAGAGCACACGUCU is higher in “aptazyme ON/OFF ratio” value: 1.01 for the first, 1.27 for the second.

First: GGGUCGGUCUUGAAUAAUCGCGUGGAUAUGGCACGCAAGUUUCUACCGGGCACCGUAAAUGUCCGACUGGAGCCGUUCGGGCGGCUAUAAACAGACCUCAGGCCCGAAGCGUGGCGGCACCUGCCGCCGGUGGUAAAAAAGAUCGGAAGAGCACACGUCU
Second: GGGUCGAGGAGGCAUAAUCGCGUGGAUAUGGCACGCAAGUUUCUACCGGGCACCGUAAAUGUCCGACUGGAGCCGUUCGGGCGGCUAUAAACAGACCUCAGGCCCGAAGCGUGGCGGCACCUGCCGCCGGUGGUAAAAAAGAUCGGAAGAGCACACGUCU
The “aptazyme ON/OFF ratio” value of the first is lower: 1.3 for the first, 1.32 for the second.

Going from GGGUCGAUCCAUUAUAAUCGCGUGGAUAUGGCACGCAAGUUUCUACCGGGCACCGUAAAUGUCCGACUGGAGCCGUUCGGGCGGCUAUAAACAGACCUCAGGCCCGAAGCGUGGCGGCACCUGCCGCCGGUGGUAAAAAAGAUCGGAAGAGCACACGUCU to GGGUCGGUGCUUCAUAAUCGCGUGGAUAUGGCACGCAAGUUUCUACCGGGCACCGUAAAUGUCCGACUGGAGCCGUUCGGGCGGCUAUAAACAGACCUCAGGCCCGAAGCGUGGCGGCACCUGCCGCCGGUGGUAAAAAAGAUCGGAAGAGCACACGUCU, the “aptazyme ON/OFF ratio” value rises from 1.06 to 1.2.

First: GGGUCGGUUCCUGAUAAUCGCGUGGAUAUGGCACGCAAGUUUCUACCGGGCACCGUAAAUGUCCGACUGGAGCCGUUCGGGCGGCUAUAAACAGACCUCAGGCCCGAAGCGUGGCGGCACCUGCCGCCGGUGGUAAAAAAGAUCGGAAGAGCACACGUCU
Second: GGGUCGACAAAAGAUAAUCGCGUGGAUAUGGCACGCAAGUUUCUACCGGGCACCGUAAAUGUCCGACUGGAGCCGUUCGGGCGGCUAUAAACAGACCUCAGGCCCGAAGCGUGGCGGCACCUGCCGCCGGUGGUAAAAAAGAUCGGAAGAGCACACGUCU
The “aptazyme ON/OFF ratio” value of the first is higher: 1.23 for the first, 1.18 for the second.

Compared with GGGUCGUUGGUAGAUAAUCGCGUGGAUAUGGCACGCAAGUUUCUACCGGGCACCGUAAAUGUCCGACUGGAGCCGUUCGGGCGGCUAUAAACAGACCUCAGGCCCGAAGCGUGGCGGCACCUGCCGCCGGUGGUAAAAAAGAUCGGAAGAGCACACGUCU, GGGUCGAGAAAUUAUAAUCGCGUGGAUAUGGCACGCAAGUUUCUACCGGGCACCGUAAAUGUCCGACUGGAGCCGUUCGGGCGGCUAUAAACAGACCUCAGGCCCGAAGCGUGGCGGCACCUGCCGCCGGUGGUAAAAAAGAUCGGAAGAGCACACGUCU is higher in “aptazyme ON/OFF ratio” value: 1.06 for the first, 1.07 for the second.

Going from GGGUCGGUCAUUGAUAAUCGCGUGGAUAUGGCACGCAAGUUUCUACCGGGCACCGUAAAUGUCCGACUGGAGCCGUUCGGGCGGCUAUAAACAGACCUCAGGCCCGAAGCGUGGCGGCACCUGCCGCCGGUGGUAAAAAAGAUCGGAAGAGCACACGUCU to GGGUCGAGGGCCUAUAAUCGCGUGGAUAUGGCACGCAAGUUUCUACCGGGCACCGUAAAUGUCCGACUGGAGCCGUUCGGGCGGCUAUAAACAGACCUCAGGCCCGAAGCGUGGCGGCACCUGCCGCCGGUGGUAAAAAAGAUCGGAAGAGCACACGUCU, the “aptazyme ON/OFF ratio” value rises from 1.05 to 1.3.

Going from GGGUCGAUUAUCUAUAAUCGCGUGGAUAUGGCACGCAAGUUUCUACCGGGCACCGUAAAUGUCCGACUGGAGCCGUUCGGGCGGCUAUAAACAGACCUCAGGCCCGAAGCGUGGCGGCACCUGCCGCCGGUGGUAAAAAAGAUCGGAAGAGCACACGUCU to GGGUCGUUACUGAAUAAUCGCGUGGAUAUGGCACGCAAGUUUCUACCGGGCACCGUAAAUGUCCGACUGGAGCCGUUCGGGCGGCUAUAAACAGACCUCAGGCCCGAAGCGUGGCGGCACCUGCCGCCGGUGGUAAAAAAGAUCGGAAGAGCACACGUCU, the “aptazyme ON/OFF ratio” value falls from 1.35 to 1.23.

First: GGGUCGGCGUGACAUAAUCGCGUGGAUAUGGCACGCAAGUUUCUACCGGGCACCGUAAAUGUCCGACUGGAGCCGUUCGGGCGGCUAUAAACAGACCUCAGGCCCGAAGCGUGGCGGCACCUGCCGCCGGUGGUAAAAAAGAUCGGAAGAGCACACGUCU
Second: GGGUCGGAGGGCGAUAAUCGCGUGGAUAUGGCACGCAAGUUUCUACCGGGCACCGUAAAUGUCCGACUGGAGCCGUUCGGGCGGCUAUAAACAGACCUCAGGCCCGAAGCGUGGCGGCACCUGCCGCCGGUGGUAAAAAAGAUCGGAAGAGCACACGUCU
The “aptazyme ON/OFF ratio” value of the first is lower: 1.14 for the first, 1.43 for the second.

First: GGGUCGUGCAAUUAUAAUCGCGUGGAUAUGGCACGCAAGUUUCUACCGGGCACCGUAAAUGUCCGACUGGAGCCGUUCGGGCGGCUAUAAACAGACCUCAGGCCCGAAGCGUGGCGGCACCUGCCGCCGGUGGUAAAAAAGAUCGGAAGAGCACACGUCU
Second: GGGUCGACCUGAGAUAAUCGCGUGGAUAUGGCACGCAAGUUUCUACCGGGCACCGUAAAUGUCCGACUGGAGCCGUUCGGGCGGCUAUAAACAGACCUCAGGCCCGAAGCGUGGCGGCACCUGCCGCCGGUGGUAAAAAAGAUCGGAAGAGCACACGUCU
The “aptazyme ON/OFF ratio” value of the first is lower: 1.19 for the first, 1.31 for the second.

GGGUCGAACGCUUAUAAUCGCGUGGAUAUGGCACGCAAGUUUCUACCGGGCACCGUAAAUGUCCGACUGGAGCCGUUCGGGCGGCUAUAAACAGACCUCAGGCCCGAAGCGUGGCGGCACCUGCCGCCGGUGGUAAAAAAGAUCGGAAGAGCACACGUCU and GGGUCGAGUCUGCAUAAUCGCGUGGAUAUGGCACGCAAGUUUCUACCGGGCACCGUAAAUGUCCGACUGGAGCCGUUCGGGCGGCUAUAAACAGACCUCAGGCCCGAAGCGUGGCGGCACCUGCCGCCGGUGGUAAAAAAGAUCGGAAGAGCACACGUCU are the same in “aptazyme ON/OFF ratio” value: 1.24 for the first, 1.24 for the second.

Going from GGGUCGACUACGCAUAAUCGCGUGGAUAUGGCACGCAAGUUUCUACCGGGCACCGUAAAUGUCCGACUGGAGCCGUUCGGGCGGCUAUAAACAGACCUCAGGCCCGAAGCGUGGCGGCACCUGCCGCCGGUGGUAAAAAAGAUCGGAAGAGCACACGUCU to GGGUCGGCUGUGGAUAAUCGCGUGGAUAUGGCACGCAAGUUUCUACCGGGCACCGUAAAUGUCCGACUGGAGCCGUUCGGGCGGCUAUAAACAGACCUCAGGCCCGAAGCGUGGCGGCACCUGCCGCCGGUGGUAAAAAAGAUCGGAAGAGCACACGUCU, the “aptazyme ON/OFF ratio” value falls from 1.27 to 1.23.

Compared with GGGUCGUAUUCGCAUAAUCGCGUGGAUAUGGCACGCAAGUUUCUACCGGGCACCGUAAAUGUCCGACUGGAGCCGUUCGGGCGGCUAUAAACAGACCUCAGGCCCGAAGCGUGGCGGCACCUGCCGCCGGUGGUAAAAAAGAUCGGAAGAGCACACGUCU, GGGUCGCCGAAGCAUAAUCGCGUGGAUAUGGCACGCAAGUUUCUACCGGGCACCGUAAAUGUCCGACUGGAGCCGUUCGGGCGGCUAUAAACAGACCUCAGGCCCGAAGCGUGGCGGCACCUGCCGCCGGUGGUAAAAAAGAUCGGAAGAGCACACGUCU is higher in “aptazyme ON/OFF ratio” value: 1.08 for the first, 1.24 for the second.

First: GGGUCGGGCCAUGAUAAUCGCGUGGAUAUGGCACGCAAGUUUCUACCGGGCACCGUAAAUGUCCGACUGGAGCCGUUCGGGCGGCUAUAAACAGACCUCAGGCCCGAAGCGUGGCGGCACCUGCCGCCGGUGGUAAAAAAGAUCGGAAGAGCACACGUCU
Second: GGGUCGCUAUUAAAUAAUCGCGUGGAUAUGGCACGCAAGUUUCUACCGGGCACCGUAAAUGUCCGACUGGAGCCGUUCGGGCGGCUAUAAACAGACCUCAGGCCCGAAGCGUGGCGGCACCUGCCGCCGGUGGUAAAAAAGAUCGGAAGAGCACACGUCU
The “aptazyme ON/OFF ratio” value of the first is higher: 1.32 for the first, 1.24 for the second.

First: GGGUCGGGGAAUUAUAAUCGCGUGGAUAUGGCACGCAAGUUUCUACCGGGCACCGUAAAUGUCCGACUGGAGCCGUUCGGGCGGCUAUAAACAGACCUCAGGCCCGAAGCGUGGCGGCACCUGCCGCCGGUGGUAAAAAAGAUCGGAAGAGCACACGUCU
Second: GGGUCGUCGAGCAAUAAUCGCGUGGAUAUGGCACGCAAGUUUCUACCGGGCACCGUAAAUGUCCGACUGGAGCCGUUCGGGCGGCUAUAAACAGACCUCAGGCCCGAAGCGUGGCGGCACCUGCCGCCGGUGGUAAAAAAGAUCGGAAGAGCACACGUCU
The “aptazyme ON/OFF ratio” value of the first is lower: 1.15 for the first, 1.3 for the second.

Compared with GGGUCGCGGGUGUAUAAUCGCGUGGAUAUGGCACGCAAGUUUCUACCGGGCACCGUAAAUGUCCGACUGGAGCCGUUCGGGCGGCUAUAAACAGACCUCAGGCCCGAAGCGUGGCGGCACCUGCCGCCGGUGGUAAAAAAGAUCGGAAGAGCACACGUCU, GGGUCGAUCCGGAAUAAUCGCGUGGAUAUGGCACGCAAGUUUCUACCGGGCACCGUAAAUGUCCGACUGGAGCCGUUCGGGCGGCUAUAAACAGACCUCAGGCCCGAAGCGUGGCGGCACCUGCCGCCGGUGGUAAAAAAGAUCGGAAGAGCACACGUCU is lower in “aptazyme ON/OFF ratio” value: 1.29 for the first, 1.07 for the second.

— the RNAGym collection of RNA variant scans (doi:10.1021/acssynbio.7b00057)
